# B1: BAR (bialaphos resistance; phosphinothricin acetyltransferase) from Streptomyces hygroscopicus (enzyme, UniProt P16426 1-183, looked up)
# chain: MSPERRPADIRRATEADMPAVCTIVNHYIETSTVNFRTEPQEPQEWTDDLVRLRERYPWLVAEVDGEVAGIAYAGPWKARNAYDWTAESTVYVSPRHQRTGLGSTLYTHLLKSLEAQGFKSVVAVIGLPNDPSVRMHEALGYAPRGMLRAAGFKHGNWHDVGFWQLDFSLPVPPRPVLPVTEI
# Target: the molecule itself
# Assay: crystal structure
protein,measurement,value
B1,stoichiometry N,2

# From publication doi:10.1101/122184 (bioRxiv, 2017)
